Assays:
human Claudin18.2 [1] = target: T1, human Claudin18.2 (Homo sapiens, UniProt P56856); assay: Cell-based ELISA affinity of humanized antibodies on L929-Claudin18.2 (human) cells; format: binding; conditions: L929-Claudin18.2 cells
T1 construct: expressed in transfected cells

human Claudin18.2 [2] = target: T1, human Claudin18.2; assay: Cell-based ELISA affinity of humanized antibodies on HEK293T-Claudin18.2 (human) cells; format: binding; conditions: HEK293T-Claudin18.2 cells
Procedure: The affinity of the anti-human Claudin18.2 murine monoclonal antibodies was evaluated by cell-based ELISA. The experimental procedures were as follows: The day before the experiment, HEK293T-Claudin18.2 (human) cells were plated in a 96-well plate at 5×10^4 cells/well. On the day of the experiment, the supernatant was removed, the cells in each well were washed once with 300 μL of PBS, and 100 μL of 4% paraformaldehyde was added to each well for fixation at room temperature for 20 min. Paraformaldehyde was then removed, and the cells in each well were washed twice with 300 μL of PBS. 100 μL of 2% BSA (in PBS) was added to each well, and the mixture was blocked at 37° C. for 2 h. After removing the blocking solution, each antibody subjected to gradient dilution (diluted with 2% BSA (in PBS), starting at […], in a 3-fold gradient, for a total of 11 concentration points) was added to the plate at 100 μL/well, and the mixture was incubated at 37° C. for 2 h. The supernatant was removed, and the cells in each well were washed three times with 300 μL of PBST. 100 μL of an anti-mouse IgG HRP secondary antibody (Jackson, cat #115-035-003) in 2% BSA was added to each well, and the mixture was incubated at 37° C. for 1 h. The secondary antibody was then removed, and the cells in each well were washed five times with 300 μL of PBST, followed by the addition of 100 μL of a TMB substrate (Huzhou InnoReagents Co., Ltd.) per well for color development for 5-20 min. The reaction was stopped by adding 50 μL of 2 N HCl to each well, and OD450 nm values were read on a microplate reader (manufacturer: MD, model: SpectraMax). The values obtained were plotted by GraphPad Prism to calculate the EC50 value.
The affinity of the anti-human Claudin18.2 humanized monoclonal antibodies was determined by cell-based ELISA. The cell-based ELISA was conducted as described in Example I-3.

human Claudin18.2 [3] = target: T1, human Claudin18.2; assay: Cell-based ELISA affinity on NUGC4 cells endogenously expressing human Claudin18.2; format: binding
human Claudin18.2 [4] = target: T1, human Claudin18.2; assay: Cell-based FACS affinity on HEK293T-Claudin18.2 (human) cells; format: binding
Procedure: The affinity of the anti-human Claudin18.2 humanized antibodies was detected by flow cytometry. The experimental procedures were as follows: The adherent cultured HEK293T-Claudin18.2 (human), NUGC4-Claudin18.2 (human) and NUGC4 cells were digested, collected by centrifugation, and washed three times with pre-cooled PBS. The cells were resuspended in 1% BSA (in PBS) and added to a 96-well pointed bottom plate at 3×10^5 cells/well, with a volume of 50 μL per well. Each test antibody was diluted with 1% BSA (in PBS) (starting at 100 μg/mL, diluted in a 3-fold gradient, for 10 concentration points). The test antibody subjected to gradient dilution was added to the cells at 50 μL/well, and the mixture was well mixed and incubated at 4° C. for 1 h. The cells were collected by centrifugation, washed three times with pre-cooled PBS, and resuspended in 50 μL of 1% BSA (in PBS). 1 μL of a fluorescent secondary antibody (Biolegend-410712) was added to each well, and the mixture was well mixed and incubated at 4° C. for 0.5 h. The cells were collected by centrifugation, washed three times with pre-cooled PBS, resuspended in 200 μL of PBS, and assayed on a machine.

[5] = test system: cynomolgus monkey Claudin18.2; assay: FACS species affinity on HEK293T-Claudin18.2 (cynomolgus monkey) cells; format: binding; conditions: cell-based FACS
Procedure: The affinity of the anti-human Claudin18.2 humanized monoclonal antibodies for Claudin18.2 of different species was determined by flow cytometry (FACS). The experimental procedures were as follows: HEK293T-Claudin18.2 (cynomolgus monkey) cells, HEK293T-Claudin18.2 (mouse) cells and HEK293T-Claudin18.2 (rat) cells were digested, collected by centrifugation, washed three times with pre-cooled PBS, resuspended in 1% BSA (in PBS), and added to a 96-well pointed bottom plate at 3×10^5 cells/well. Each antibody subjected to gradient dilution was added, and the mixture was incubated at 4° C. for 1 h. The cells were washed three times with pre-cooled PBS, and then 1 μL of a fluorescent secondary antibody (APC: Biolegend-410712) was added to each well. The mixture was incubated at 4° C. for 0.5 h, and the cells were washed three times with pre-cooled PBS, then resuspended, and assayed on a flow cytometer.

human Claudin18.1 = target: T2, human Claudin18.1 (Homo sapiens, UniProt P56856); assay: FACS specificity of humanized antibodies on HEK293T-Claudin18.1 (human) cells; format: binding; conditions: antibody 50 μg/mL, APC secondary antibody
T2 construct: expressed in transfected cells
Procedure: The specificity of the anti-human Claudin18.2 humanized monoclonal antibodies was determined by flow cytometry (FACS). The experimental procedures were as follows: HEK293T-Claudin18.1 (human) cells were digested, collected by centrifugation, washed three times with pre-cooled PBS, resuspended in 1% BSA (in PBS), and added to a 96-well pointed bottom plate at 3×10^5 cells/well. Each test antibody with a final concentration of 50 μg/mL was added, and the mixture was incubated at 4° C. for 1 h. The cells were washed three times with pre-cooled PBS, and then 1 μL of a fluorescent secondary antibody (APC: Biolegend-410712 or PE: BioLegend-410708) was added to each well. The mixture was incubated at 4° C. for 0.5 h, and the cells were washed three times with pre-cooled PBS, then resuspended, and assayed on a flow cytometer. For reference, anti-human Claudin18.1 positive control antibodies (positive control antibody-1 and positive control antibody-2) were included in the experiment.

[6] = test system: HEK293T-Claudin18.2 (human) cells; assay: ADCC activity, fluorescein reporter system (Jurkat-NFAT-CD16a); format: cell-based; conditions: HEK293T-Claudin18.2 (human) target cells, 5 h
Procedure: ADCC activity of the anti-human Claudin18.2 humanized monoclonal antibodies was detected by a fluorescein reporter system. The experiment was carried out using a Rhinogen® Bio-Glory One-Step Firefly Luciferase Assay kit (Suzhou Rhino Bio, RA-GL04), following the manufacturer's instructions. The experimental procedures were as follows: HEK293T-Claudin18.2 (human) cells were digested, collected by centrifugation, resuspended in DMEM+1% FBS, and then plated at 50000 cells/well. Jurkat-NFAT-CD16a cells were collected by centrifugation and resuspended in 1640+1% FBS, and then plated at 100000 cells/well. Each test antibody subjected to gradient dilution was added, and the mixture was incubated at 37° C. for 5 h. 50 μL of a Bio-Glory One-Step luciferase substrate was added to each well, and readings were taken on a microplate reader (MD, SpectraMax i3x).

[7] = test system: HEK293T-Claudin18.2 (human) cells; assay: CDC activity, guinea pig serum killing experiment; format: cell-based; conditions: 20% guinea pig serum, 5 h
Procedure: CDC activity of the anti-human Claudin18.2 humanized monoclonal antibodies was detected by a guinea pig serum killing experiment. The experimental procedures were as follows: HEK293T-Claudin18.2 (human) cells were digested, collected by centrifugation, plated at 50000 cells/well, and incubated overnight. The supernatant was discarded, and 100 μL of each test antibody subjected to gradient dilution with DMEM+20% guinea pig serum (Beijing Bersee, BM361Y) was added to each well. The mixture was incubated at 37° C. for 5 h, and 20 μL of a CCK8 reagent (Suzhou Rhino Bio, QDY-003-D) was added to each well. The mixture was allowed to react for 1-4 h, and readings were taken at 450 nm on a microplate reader.

B1: 2D3A11-HZ1: humanized anti-Claudin18.2 antibody, VH SEQ ID NO: 38, VL SEQ ID NO: 39 (antibody, V domains shown)
VH: QVQLVQSGAEVKKPGASVKVSCKASGYTFTSYVVHWVRQAPGQGLEWMGYINPYNADSKYSQEFQGRATLTSDKSASTAYMELSSLRSEDMAVYYCSRSYYGNSFDVWGQGTLVTVSS
VL: DIVMTQSPDSLAVSLGERATINCKSSQSLLNSGNQKNYLTWYQQKPGQSPKLLFFWASTRQSGVPDRFSGSGSGTDFTLTISSLQAEDVAVYYCQNDYYFPFTFGQGTKVEIK
Affinity detected by cell-based ELISA (EC50, ng/mL) L929-Claudin18.2 (human Claudin18.2 [1]): 17.12 ± 0.85(N = 2) ng/mL | Affinity detected by cell-based ELISA (EC50, ng/mL) HEK293T-Claudin18.2 (human Claudin18.2 [2]): 12.67 ± 2.1(N = 2) ng/mL | NUCG4 EC50 (human Claudin18.2 [3]): 95.18 ng/mL | NUCG4 Maximum signal value (human Claudin18.2 [3]; OD450): 0.316 | HEK293T-Claudin18.2 EC50 (human Claudin18.2 [4]): 368.7 ng/mL | HEK293T-Claudin18.2 Maximum signal value (human Claudin18.2 [4]): 132603 | HEK293T-Claudin18.2 (cynomolgus monkey) EC50 [5]: 171.9 ng/mL | Mean APC fluorescence signal value (human Claudin18.1): 281 | Median APC fluorescence signal value (human Claudin18.1): 233 | Positive rate (%) (human Claudin18.1): 0.69% | ADCC activity EC50 [6]: 47.91 ng/mL | CDC activity EC50 [7]: 1904 ng/mL

Reference: patent publication US20260201030A1, “ANTIBODY, ANTIBODY-DRUG CONJUGATE THEREOF AND USE THEREOF” (EVOPOINT BIOSCIENCES CO., LTD., priority 2021, published 2026)
